Assay results as given in publication PMC7111720.
Like-named read-outs stand apart in the source and are kept apart here.

B1: 21 nt small dsRNA, free 3' OH (dsRNA)
RNA 1: ACUGGAGUUGUCCCAAUUCUU
RNA 2: GAAUUGGGACAACUCCAGUGA
B2: 21 nt small dsRNA, DIG (dsRNA)
RNA 1: ACUGGAGUUGUCCCAAUUCUU
RNA 2: GAAUUGGGACAACUCCAGUGA
modifications: 3'-DIG on antisense strand

What was measured:
p22 [1] = molecular target: T1, p22 (Tomato chlorosis virus (isolate AT80/99), UniProt Q001T4 1-193); test: EMSA
T1 sequence: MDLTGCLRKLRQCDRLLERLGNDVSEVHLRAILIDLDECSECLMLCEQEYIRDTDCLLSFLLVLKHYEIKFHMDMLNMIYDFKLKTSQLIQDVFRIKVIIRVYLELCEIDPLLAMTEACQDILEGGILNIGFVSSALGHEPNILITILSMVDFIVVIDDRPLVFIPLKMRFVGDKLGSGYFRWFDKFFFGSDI

p22 [2] = molecular target: T1, p22; test: EMSA; remark: listed apart in the source

Binder | binding result (p22 [1]) | binding result (p22 [2])
B1 | no binding | 
B2 |  | no binding
